[ ]: non-standard residue; d: D form. F2Pmp = N[C@@H](Cc1ccc(C(F)(F)P(=O)(O)O)cc1)C(=O)O
T1: PTP1B/D181A/Q262A, catalytic domain (residues 1 to 321) (human, UniProt P18031 1-321)
T1 construct: range 1-321; Used in vitro (ITC, kinetics); also called PTP1B substrate-trapping double mutant
T1 sequence (looked up): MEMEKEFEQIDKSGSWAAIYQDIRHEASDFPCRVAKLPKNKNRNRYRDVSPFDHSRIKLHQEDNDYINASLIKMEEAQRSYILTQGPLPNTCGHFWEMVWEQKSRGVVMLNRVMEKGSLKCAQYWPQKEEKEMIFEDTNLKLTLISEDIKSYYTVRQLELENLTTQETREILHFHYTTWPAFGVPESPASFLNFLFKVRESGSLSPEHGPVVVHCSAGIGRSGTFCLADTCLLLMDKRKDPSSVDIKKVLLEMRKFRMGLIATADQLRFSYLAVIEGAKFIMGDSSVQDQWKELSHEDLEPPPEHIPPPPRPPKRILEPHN

T2: PTP1B/D181A/C215E, catalytic domain (residues 1 to 321) (human, UniProt P18031 1-321)
T2 construct: range 1-321; Used in vitro (ITC)
T2 sequence (looked up): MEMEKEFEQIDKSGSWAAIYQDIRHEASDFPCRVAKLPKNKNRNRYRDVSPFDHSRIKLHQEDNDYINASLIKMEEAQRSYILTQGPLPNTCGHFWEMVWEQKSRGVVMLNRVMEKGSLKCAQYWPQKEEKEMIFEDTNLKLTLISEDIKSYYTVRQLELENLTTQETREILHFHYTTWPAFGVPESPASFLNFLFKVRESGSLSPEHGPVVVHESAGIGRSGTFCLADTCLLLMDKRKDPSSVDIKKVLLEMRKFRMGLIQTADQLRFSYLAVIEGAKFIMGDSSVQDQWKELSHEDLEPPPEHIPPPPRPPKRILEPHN

T3: Ac-Asp-Ala-Asp-Glu-F2Pmp-Leu-NH2 (Homo sapiens, UniProt P18031, C215S/Q262A)
T3 construct: The catalytic domain of PTP1B (residues 1 to 321) was used for in vitro study; made in house; host or cells: E. coli (pT7-7 plasmids)
T3 sequence (P18031 1-321 C215S/Q262A): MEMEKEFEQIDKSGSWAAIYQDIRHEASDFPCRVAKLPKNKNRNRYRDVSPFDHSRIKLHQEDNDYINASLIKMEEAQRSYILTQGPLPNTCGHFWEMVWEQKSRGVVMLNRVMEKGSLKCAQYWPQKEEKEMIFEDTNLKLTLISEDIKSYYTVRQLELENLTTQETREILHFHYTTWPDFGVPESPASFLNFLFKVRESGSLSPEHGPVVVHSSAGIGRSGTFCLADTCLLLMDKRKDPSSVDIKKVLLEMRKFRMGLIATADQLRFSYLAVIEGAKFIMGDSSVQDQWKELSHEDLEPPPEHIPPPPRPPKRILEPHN

B1: Ac-Asp-Ala-Asp-Glu-F2Pmp-Leu-NH2 (peptide)
peptide: Ac-DADE[F2Pmp]L-NH2
notes: Synthetic hexapeptide printed in three-letter code; also called F2Pmp-containing peptide; non-hydrolyzable substrate analog

What was measured:
[1] = target: T1, PTP1B/D181A/Q262A, catalytic domain …; experiment: ITC, 25 C, pH 7.0
Protocol: (§1) All isothermal titration calorimetry experiments were performed using an MCS Isothermal Titration Calorimetry System from Microcal Inc. (Northampton, Mass.). Experiments at pH 7.0 were conducted at 25° C., in 50 mM 3,3-dimethylglutarate buffer containing 1 mM DTT. The ionic strength of the buffer was adjusted to 0.15 M by addition of NaCl. Protein concentration in the calorimeter cell was 27-85 µM, while the ligand concentration in the syringe was 0.37-1 mM.
(§2) The PTP1B samples used in the isothermal titration calorimetry experiments were dialyzed completely against buffer. High-concentration stock solutions were prepared for ligands with distilled water, and adjusted to pH 7.0. […] Protein dilution during titration was determined by titration of buffer into the protein solution. […] The heat of ligand dilution was corrected by subtracting the average heat of injection after saturation.
(§3) A typical titration curve and binding isotherm for the binding of D181A/Q262A to Ac-Asp-Ala-Asp-Glu-F_2Pmp-Leu-NH_2 is shown in FIG. 3. From curve-fitting of the binding isotherms, the stoichiometry for the binding of the peptide to D181A/Q262A was determined to be 1:1.

[2] = target: T2, PTP1B/D181A/C215E, catalytic domain …; experiment: ITC, 25 C, pH 7.0
Protocol: as §1, §2, §3

EGF receptor = experiment: Substrate protection: EGF receptor tyrosine phosphorylation in COS1 cells expressing PTP1B forms (anti-pTyr Western blot); type: cell-based, Monkey; details: COS1 cell lysates, anti-pTyr immunoblot (FIG. 4)
Protocol: FIG. 4 sets forth Western blots (WB) that show the level of tyrosine phosphorylation in the epidermal growth factor receptor (EGFR) upon expression of the wild-type and mutant PTP1Bs (4 μg plasmid/60 mm dish) in COS1 cells. Samples (50 μg total protein) were taken from the lysates of COS1 cells transfected with 4 μg of pJ3H plasmids expressing HA-tagged wild-type PTP1B, D181A, C215S, D181A/Q262A, or D181A/C215S. These samples were loaded into each lane for SDS-PAGE electrophoresis, and transferred onto a nitrocellulose membrane. The proteins on the membrane were first immunoblotted with anti-pTyr HRP conjugate (upper panel). The membrane was then stripped and re-probed with anti-hemagglutinin (anti-HA) HRP conjugate (lower panel).
The hemagglutinin-tagged (HA-tagged) full-length human wild-type PTP1B in pJ3H expression vector was a gift from Dr. Chemoff (30). The HA-tagged PTP1B mutants, C215S, D181A, D181A/C215S, and D181A/Q262A, were generated by PCR reactions, according to the standard procedure of the Quick-Change™ site-directed mutagenesis kit (Stratagene), using pJ3H-HA-PTP1B as a template. All mutations were verified by DNA sequencing.
Monkey kidney COS1 cells (ATCC: CRL-1650) were maintained in Dulbecco's modified Eagle's minimum essential medium (DMEM), supplemented with 10% fetal bovine serum (Life Technologies, Inc.), penicillin (50 units/ml), streptomycin (50 μg/ml), and L-glutamine (2 mM) under a humidified atmosphere containing 5% CO2. In transient transfection experiments, COS1 cells were inoculated at a density of 2×10^5 cells/60-mm dish, and grown overnight in DMEM containing 10% fetal bovine serum. Transfection was performed using LipoTAXI^R according to the manufacturer's recommendations (Stratagene, Cedar Creek, Tex.). Each transfection assay included 4 μg of purified DNA mixed with LipoTAXI^R in a 1:5 DNA:lipid ratio per 60-mm dish of cells. Following transfection, the cells were exchanged to normal culture medium, and maintained for 44 to 48 h at 37° C. and 5% CO2. The efficiency of transfection, as assessed by 5-bromo-4-chloro-3-indolyl-β-D galactoside (X-Gal) staining of pCMV-β-gal-transfected (β-Gal staining kit, Invitrogen) COS cells, was 25%.
The transfected cells (treated with or without EGF) were lysed with “lysis buffer” containing 50 mM Tris-HC1 (pH 7.5), 5 mM EDTA, 150 mM NaCl, 10 mM sodium phosphate, 10 mM sodium fluoride, 5 mM iodoacetic acid, 1 mM benzamidine, 1% Triton X-100, 10 μg/ml leupeptin, and 5 μg/ml Aprotinin. Lysate protein concentration was estimated using Bio-Rad protein assay reagent (Bio-Rad, Hercules, Calif.).
For immunoprecipitation, 1 mg of cell lysate was immunoprecipitated overnight with 30 μl of agarose-conjugated anti-hemagglutinin antibody at 4° C. Immunocomplexes were washed four times with the cell lysis buffer, and boiled for 5 min in SDS-PAGE sample buffer. Proteins in the cell lysate were separated by 8% SDS-PAGE under reducing conditions, according to the method of Laemmli (31), followed by blotting onto nitrocellulose membranes (Protran, Schleicher & Schuell). The nitrocellulose membranes were blocked with 5% non-fat dry milk in Tris-buffered saline/Tween (TBST) buffer (20 mM Tris-HC1, 150 mM NaCl, 0.1% Tween-20; pH 7.6) for 1 h at 25° C.
Thereafter, blots were incubated overnight with primary antibodies diluted in TBST containing 5% non-fat dry milk at 4° C. […]

[3] = test system: EGFR^988-998 peptide, DADEpYLIPQQG; experiment: Kinetic constants for PTP1B-catalyzed hydrolysis of pTyr-containing EGFR988-998 peptide; type: biochemical; details: EGFR988-998 peptide as substrate
Description: The catalytic domain of PTP1B (residues 1 to 321) was used for in vitro study. PTP1B mutants, C215S, D181A, and Q262A, were described previously (9, 25, 26). PTP1B double mutants, D181A/C215S and C215S/Q262A, were generated by PCR reactions, according to the standard procedure of the Quick-Change™ site-directed mutagenesis kit (Stratagene), using pT7-7/PTP1B/C215S as a template. PTP1B double mutants, D181A/C215E and D181A/Q262A, were generated by similar PCR procedures, using pT7-7/PTP1B/D181A as a template. The recombinant wild-type and mutant PTP1Bs were expressed in E. coli, and purified to homogeneity as described (25, 27). Protein concentration was determined from absorbance measurement at 280 nm, using an absorbance coefficient of 1.24 for 1 mg/ml PTP1B.
All assays were performed at 25° C. in buffer (pH 7.0, ionic strength=0.15 M) containing 50 mM 3,3-dimethylglutarate and 1 mM EDTA. A continuous spectrophotometric assay, previously described (28), was employed to determine kcat and Km for the pTyr-containing peptides. The dephosphorylation reaction was monitored by either an increase in absorbance at 282 nm, or an increase in fluorescence at 305 nm. Fluorometric and absorbance determinations were performed on a Perkin-Elmer LS50B fluorometer and a Perkin-Elmer Lambda 14 spectrophotometer, respectively. The instruments were equipped with a water-jacketed cell holder, permitting maintenance of the reaction mixture at the desired temperature (25° C.).

[4] = target: B1; experiment: ITC; complex titration curve, no Kd obtained
[5] = target: T3, Ac-Asp-Ala-Asp-Glu-F2Pmp-Leu-NH2; experiment: Isothermal titration calorimetry, binding of PTP1B and mutants to F2Pmp peptide; details: 25° C.; one peak absorbing heat, the other releasing heat
Protocol: FIG. 3 portrays calorimetric isothermal titration for the reaction of peptide Ac-Asp-Ala-Asp-Glu-F2Pmp-Leu-NH2 with PTP1B/D181A/Q262A. The upper graph depicts raw data for thirty 8-μl injections of the peptide (0.5 mM stock) into the isothermal cell containing 32 μM PTP1B/D181A/Q262A, at 4-min intervals and 25° C. Both the protein and the peptide were in 50 mM 3,3-dimethylglutarate buffer (I=0.15 M, pH 7.0) containing 1 mM DTT. The lower graph depicts an integration curve showing experimental points that were obtained by integration of the above peaks as plotted against the molar ratio of the peptide to PTP1B/D181A/Q262A within the reaction cell. The solid line corresponds to the best fit to the data according to the nonlinear, least-squares regression algorithm, ORIGIN (29).
as §1, with “Experiments at pH 7.0 were conducted at 25° C., in 50 mM 3,3-dimethylglutarate buffer containing 1 mM DTT.” left out, “μM,” for “µM,”
The PTP1B samples used in the isothermal titration calorimetry experiments were dialyzed completely against buffer. High-concentration stock solutions were prepared for ligands with distilled water, and adjusted to pH 7.0. Stock was diluted at least 26-fold with 50 mM 3,3-dimethylglutarate buffer before titration. Protein dilution during titration was determined by titration of buffer into the protein solution. […] The heat of ligand dilution was corrected by subtracting the average heat of injection after saturation.
The binding data were analyzed using ORIGIN software (29). Binding constant, K, and enthalpy change, ΔH, were used to calculate free energy change, ΔG, and entropy change, ΔS, according to equation [1]: −RTLnK=ΔG=ΔH−TΔS [1] where R is the gas constant and T is the absolute temperature.

Row | Molecule | Kd [1] | Kd [2] | level of pTyr in the EGF receptor / enhancement of EGF receptor phosphorylation (EGF receptor) | phosphatase activity [3] | binding stoichiometry [4] | shape of ITC titration curve [5]
1 | B1 | 6.8 nM | 1300 nM |  |  |  | 
2 | PTP1B/D181A/C215S, catalytic domain (residues 1 to 321) (enzyme, human, UniProt P18031 1-321, looked up) MEMEKEFEQIDKSGSWAAIYQDIRHEASDFPCRVAKLPKNKNRNRYRDVSPFDHSRIKLHQEDNDYINASLIKMEEAQRSYILTQGPLPNTCGHFWEMVWEQKSRGVVMLNRVMEKGSLKCAQYWPQKEEKEMIFEDTNLKLTLISEDIKSYYTVRQLELENLTTQETREILHFHYTTWPAFGVPESPASFLNFLFKVRESGSLSPEHGPVVVHSSAGIGRSGTFCLADTCLLLMDKRKDPSSVDIKKVLLEMRKFRMGLIQTADQLRFSYLAVIEGAKFIMGDSSVQDQWKELSHEDLEPPPEHIPPPPRPPKRILEPHN |  |  | comparable affinity to that of C215S | no measurable activities | 0.1 | 
3 | C215S/Q262A: PTP1B double mutant, Cys215 to Ser and Gln262 to Ala (protein, UniProt P18031 1-435, looked up, variant C215S Q262A) Tyrosine-protein phosphatase …: MEMEKEFEQIDKSGSWAAIYQDIRHEASDFPCRVAKLPKNKNRNRYRDVSPFDHSRIKLHQEDNDYINASLIKMEEAQRSYILTQGPLPNTCGHFWEMVWEQKSRGVVMLNRVMEKGSLKCAQYWPQKEEKEMIFEDTNLKLTLISEDIKSYYTVRQLELENLTTQETREILHFHYTTWPDFGVPESPASFLNFLFKVRESGSLSPEHGPVVVHSSAGIGRSGTFCLADTCLLLMDKRKDPSSVDIKKVLLEMRKFRMGLIATADQLRFSYLAVIEGAKFIMGDSSVQDQWKELSHEDLEPPPEHIPPPPRPPKRILEPHNGKCREFFPNHQWVKEETQEDKDCPIKEEKGSPLNAAPYGIESMSQDTEVRSRVVGGSLRGAQAASPAKGEPSLPEKDEDHALSYWKPFLVNMCVATVLTAGAYLCYRFLFNSNT |  |  |  | no measurable activities |  | displayed two peaks

— patent US8071348B2, “Protein tyrosine phosphatase substrate-trapping double mutant and uses thereof” (Albert Einstein College of Medicine of Yeshiva University, priority 2002, dated 2011)
